{"source": "patent US20110165679", "assay_in_all_cases": "cell_activity", "key": {"[1]": {"target": "T1, I-SceI (maize codon-modified moI-SceI) (UniProt P03882)", "T1 sequence": "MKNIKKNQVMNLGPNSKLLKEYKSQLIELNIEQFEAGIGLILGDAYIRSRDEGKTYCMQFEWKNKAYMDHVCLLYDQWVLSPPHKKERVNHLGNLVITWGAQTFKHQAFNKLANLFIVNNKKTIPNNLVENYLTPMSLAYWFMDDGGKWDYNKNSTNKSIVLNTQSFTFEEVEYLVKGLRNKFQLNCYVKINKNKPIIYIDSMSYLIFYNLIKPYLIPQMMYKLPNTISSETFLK", "details": "BMS maize cells"}, "[2]": {"test_system": "Lig3-4 (engineered I-CreI-type single-chain meganuclease)", "details": "3 of 637 clones mutated; BMS maize cells"}, "[3]": {"test_system": "Lig3-4++ (engineered meganuclease variant)", "details": "56 of 237 clones mutated; BMS maize cells"}, "[4]": {"test_system": "Lig3-4+ (engineered meganuclease variant)", "details": "1 of 353 clones mutated; BMS maize cells"}, "[5]": {"target": "T2, I-CreI (UniProt P05725)", "T2 sequence": "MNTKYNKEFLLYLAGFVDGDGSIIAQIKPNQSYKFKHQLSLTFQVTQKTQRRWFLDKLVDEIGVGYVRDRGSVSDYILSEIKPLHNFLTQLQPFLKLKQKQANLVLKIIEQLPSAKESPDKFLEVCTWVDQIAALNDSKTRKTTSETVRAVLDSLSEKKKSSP", "details": "BMS maize cells"}}}
{"substance": "Double I-SceI site", "values": [{"measurement": "activity (% mutation rate)", "setting": "[1]; 57 of 63 clones mutated", "value": 90}]}
{"substance": "ATATACCTCACACGTACGCGTA (double strand) [LIG-1 site (near liguleless1)]", "values": [{"measurement": "activity (% mutation rate)", "setting": "[2]", "value": 0.5}, {"measurement": "activity (% mutation rate)", "setting": "[3]", "value": 24}, {"measurement": "activity (% mutation rate)", "setting": "[4]", "value": 0.3}]}
{"substance": "I-SceI site", "values": [{"measurement": "activity (% mutation rate)", "setting": "[1]; 49 of 58 clones mutated, T-DNA replicon assay, 0 of 34 without endonuclease", "value": 84}]}
{"substance": "I-CreI site", "values": [{"measurement": "activity (% mutation rate)", "setting": "[5]; 318 of 904 clones mutated, 0 of 34 without endonuclease", "value": 35}]}
{"substance": "Double I-CreI site", "values": [{"measurement": "activity (% mutation rate)", "setting": "[5]; 50 of 66 clones mutated", "value": 76}]}
